Measured values as given in the domain aggregation screens of Martell et al. (2025).

test: soluble fraction after stress (log2 fold change); higher = more stays soluble; pooled small domains, quantitative proteomics; conditions: stress: pH 4
How it was run: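 Values are on a log2 scale, where higher means more of the domain stayed soluble after pH 4 stress. They are fold changes in the soluble amount of each domain from pooled custom libraries, measured by high-throughput quantitative proteomics. The fold change is taken to reflect aggregation propensity.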

Sequence | soluble fraction (log2)
HMTMTKELGQRIRAERTARKMTQEELAERADLHPTYIGQVERGEKSLTIASLEKIVEGLGISFSDLFEN | -0.0395
HMTMVKYRYLTDGELKEFEEEFKHFLIANGLHSEEWERLNNEDSNKAIEVVALFSNLILDKV | -1.06
HMTMVLPDAARDKLKAIGLSIEHVEPSPVKDIFTVISREGVSYVSKDGDYIFTGSLFHVKGKDVVNTTEQA | -0.275
HMTNEAFITPSVLEWAIKRAGVSAESIHKKAEQWVSGKARPTFKQAVDIAKTLQIPFGYLWLKEPPKEQ | -0.442
HMTNELVNVNKLLDVMEPSIPLTALEIMTRLGIKSKETLRNSYLNPAIKLGMINLTSPLKPTSKNQMYYK | 0.111
HMTNKSKQRRNEILRASQELFNKKGFHDTSINDIMRRVGAAKGVFYYYFETKDQILDTLIEQHIA | -0.471
HMTNLTPKQQQIYQFIRASTQANGYPPTLREIGQQVGVRSPSTVKYHLDNLRTLGLLHWDGGKTRSITLP | 0.0274
HMTNNFIVTWRNYNEEVLEIDVNVKKGSMPKYNGKTPEREGYQFVGWDPEITEVTKDITYVAQFM | -0.0457
HMTNQKEITYSQFRQELDQGSIKSVSLQGSRIRGTYVDGGISFRTLAPNDADLIPSLMKHKVDIQVLPED | 0.0675
HMTNSTGWSKSGGTQVTIREGETIYNLSRRYGVPAKSIMEANGIADATAVRAGQRISIPTYSY | 0.22
HMTNVDELIGKEAVVVKEIRPYTTGEVKLDGKVWRAMSESKQVYKVDEIVTVLRIEGVTMII | -0.142
HMTNVETLVRMRLRSIRTTLGYSLDEIAERSNLSASTVSRIETGKRALSIDVLVPLAAALQVSVDDLLRAE | -1.31
HMTNYREILRLRSLGLNHSRIAESMGISRPTVIAALQRAQTQELNWQAAESLSDIDLAQRLNP | -0.2
HMTNYYTVTFKEGDTVLKEVSVHSGDGVPYAVAPKRDDIVGWSYNGNTYTTDLNTLKIKKEVTFTAVT | 0.183
HMTPAIEKTAVIVFINGKKYYVHTVKSGETLYSIAKAYKVDEKVIKEHNPNVADGLRIDQTVKIPVPEQVK | -0.0592
HMTPAPHESLTDREMEVLKLLAQGLSNQEIADKLFIGVKTVKYHITNIFSKLGVEDRTQAAIYAHKQGLA | -0.185
HMTPDDSYIAGYAAGILKHQFLIDAPELIVRNGTITIPADKVSAGDRAKVVQILSGIPGVTRVEVG | 0.368
HMTPDVHRGDTITVSLRAGAIRVRVPAKALEEGAAGGEIRVVNLTGGREYRVRVTGPGTAEAIL | 0.0112
HMTPEGAYTVSEIVKVINSFADEYKVPFTMHVSGYKYEEIAQQLGLPIGTVKSRIFFARKRLQELLN | -1.03
HMTPEPVTMYITSLTEFRSEPNTEAGIIKLLDAYEEVEMIESRGEWSKISYGDQIGYILSEFLTAENRT | -1.78
HMTPILTAQQVVAALQAAGYRNVHDLEFEHGRWEADAVNAAGQRVELHINPYTGAIERERLD | -0.0319
HMTPKTSVPKPGQTVVVRKGDTIYALARIHDITPADLIAWNRLDNPSQIYPGQVIRLYPQGA | 0.105
HMTPKVDLTVAEDGSASAVIAGLRVEIDAAGKVTAVAPADGTTDLSSVAPEAVKEAMDNALAAYTASKG | 0.167

Sequence | soluble fraction (log2)
HMTPLFNQGEVLKGFVLQTGTNNRVLLQIGTAKVLADAQTPLKAGEQLTLRVEATGPRTVLQILG | 0.101
HMTPLILTAQEGGERLDAFVASQVEDLTRSAAQRLLEQGAVTSGGKPLKKNAKTTPGMVVEVLLPDPQ | -0.0145
HMTPPPTNSREWMEWGISHGLDANLDRSGQVVFYTDDRVVADAAELSGADLERDNMGQFVIYTGAYDKG | -0.743
HMTPQEQWNNAYLLAKDYYDANGNLDIDEKYKTKDGFELGSWLTTQRNVYKRGKLSPEKTKKLEEIGISF | -0.107
HMTPQGALDYSRNAKYLRDQVTAINYLKQARLSLNTTDANYRQTLEQINQAIAKHNQALQQAGVQSQQLAT | 0.22
HMTPTPQQNNILVGQTGTTLTRLAPMGKVRVGEVTAEAKTIDGYINPRQSVEVIGFENTVVIVRAV | 0.22
HMTPVIINESGGDQDTRIEGLNDNNLLYVDASTDRVGVGVATPTQKLDVNGDVAISGGSLYLSQ | -0.0183
HMTPVKAPLPGVVTKINVSVGQQVKKGENVLVLEAMKMENNIAAEADGTVSGIAVKAGDSVLEGAVLLTI | -0.0107
HMTPVTYELTVQSGAGQRIDKYLSEQLADLTRSYLQKLLKDGGVTVNGKTVKSNYKLSENDQIFLEVPDA | 0.0962
HMTPVYLNARQKQILAFLKREEPAKVGDIAHALKTISINTLKKDLLYLRQKNLIESHGVLKGTIYTVK | 0.209
HMTQEFIVPKVTGYTVEDAMNLSGVKDVFEITVDSTEKSDQPAGIILFQDPKDGSSRKSDLVIHVVVSAGS | 0.0901
HMTQEQKQQISDQLRAYVEQKGSGNKAAASMNGVSSATISKVLAGKWETISEDMWRSIAAQTGH | -0.156
HMTQFSLTTEEINVLKKSYSEFTDSDKELFNKILEKYNKFKNESSNDIAFEAKILEKLQEIENFYE | -1.45
HMTQMSVLFSELEAKDAATIADKLRERNIPYELSNNGSTILIPQEVLHDTRLSLASEGLPES | 0.263
HMTQPAEINRLVEQMGSSDYKSRQEAYERLHQMGPGILDLIYPYRNHADPEIQTRVRELILSYRW | -0.547
HMTQQNRDELYRRMIDAGWDQLVRNGIRSLRVEQVAAAVGIAKGTFYHFFDSKDDFIYAMLMENRQ | -1.03
HMTQSPLHWSHRPIDLSELLTYLDRDGAFVYASGHKAPFTEVVRGFEHLLNIRLGDPRDVKRSVLQR | -0.282
HMTQTGEVIRWDAERGFGFIATADGRRHVFFHVRDFRGGAAPGVGLRVGFEEIQVGGKGPRAMDVRPL | -0.491
HMTRDGMTKEAFDSLLEDIMNILLDNGLKATTMGSIAKSLKMSKRTLYEIFSSKSQMVEEAIIASHTKMM | -0.00738
HMTREAILDTAEELLQRRGYNAFSYHHIAVQLGIRNAAIHYHFPAKEDLGIELVSRFRIRLAE | -0.238
HMTRLSSREAQVISLVRDGMTNQQIAERLELSPLTIKNHVQNILRKLDVSNRAQAVAKAVKARLI | 0.00472
HMTRRGPLTEGDRVQVRDPKGRFHQVILVRGGRFQSNRGGFNHDDVIGRPDGQVIITDEGRQFQIL | 0.0981
HMTRYEQLAAQIRQQIEDNIWQSGDRLPSLRDTVKQSGLSLMTVLQSYQLLESQGWITARPQSGYYVAHR | -0.169

Sequence | soluble fraction (log2)
HMTSGTLTLTQDTPVYTEPNKDGGVAYVQPQGDIQWDKYIFANGDNWYSFVQKNRDQEVRFYIAYSDVG | -0.623
HMTSHSFVITEEVGQRLDRFISDQLDTVSRTMIQKHIRSGAVVVNGKQVKSNYLLVLNDRINIALK | -1.22
HMTSISMDEKVVLGWHQVTTGAANSGMDKVVSNTSGLNVISPTWFKLSDNKGNYISIASKDYVDAAHKKGL | -0.317
HMTSKTLSADGGENTRLDKFLSNHLPEISRTKIQKMINDGLVYVNQNYAKASLVLDGTELISYTIPD | 0.263
HMTSLTDDELSVVMLVREREISFDEITSETGFDAARLNSVLTMLKIKGIIDETTGKHYRISGGA | -0.492
HMTSLVRTSNLDGFEPLARSIGVDPVMELMRFGIPPDALIRENMFISFIGFIRLLEHTALAG | 0.206
HMTSMYYLNKAVKEGNAKAIRQLLSAGININVRKRETSTPLDFAIKYKQTEIADLLRKHGGKTAEELKAEE | 0.0997
HMTSNEKARNAASAERRADIVAAARELYEEQGLSKTSVQDITNRMGVARSLFYHYFPDKEAVTSAVLDDYV | -0.102
HMTSPELIELGERIRKRRQEMNLSQEALAEKAGISINTVSRVEGGQTAMSIEIFRKMIEILETDANGL | -0.804
HMTSRIHDYWTSPGQPGYAKIGWGTAGDFRRAKALIGEKIAANSPEDMRYLNQIIAQWHFDALGYWPGDH | -1.08
HMTSRLLTPRQRYVFDTAMKEGFYDVPRRITLTELASVLDVAKSTLSAQLHRIESTVHHAYADDIRRRS | 0.0724
HMTSSQLNIEELERRMMMHLEQNGFITRSIYTNLTGRLKWKATEDLKIFVEKGLIRKMGRGNQMYYVKVE | -0.895
HMTSSQRDSILEFLKTRKDHPTADVVYMNVRKSFPNISLGTVYRNLTLLSDIGQIAKIRVGDGVDHFDADT | -0.073
HMTSSSGTITADWLNVRSGAGTNFSRLGSIAGGTRLTVISVHGEWYKITASFEGEIRTGYVHSQYVQMDGE | -1.59
HMTSTEQQIEQFIGTLVSLGGSAGNQRLLEALGWQDSIYQRVKQQLIDDGRIRPGRGRGGSVVLAE | -0.302
HMTSVAGIERFLASGAIKGMGAATAKLIVEHFGADTLNMLDMYPERLTEIKGIGPKKATAIIEGYRELS | -0.595
HMTSVMAWRLITPIPQHGIIRSSQVQLQKHAPNSLKFLDVDSSPVGKQVKHGIAAGHWLSKDDFTE | ≥ 0.43
HMTTAASIGRLVRDARKQRGLTQHELASLLSTSQSAIHRIESGNQNLSLEMINRIAQALESPLIVPGG | -0.343
HMTTIRQQAEVPLSAAGRRFDQALAEMFPAYSRSRLSGWIKAGAATLDGAPAAPRQLLRGGERVELDVELE | -0.316
HMTTKGGLVRDTVLNEFRDSEFTRREVELVLNGVASERTIRGALSEMVERGELTQVNFGISTRYRLNQ | -0.536
HMTTLEGIEKYLGSGMIRGIGPAYAGRLTKVFGEAVFDVIEQSPERLREVEGIGPKRVSRIVSGWAEQ | -0.707
HMTTLLNHLKGTRLEAGLSQQALARLAGISRQAYSALESGSSNPSTEVALRLARALKTSVDHLFSLPE | 0.0864
HMTTQVPYTAKLININGGSVVNFRKEPGMNTTIIRTYPVGTEVTVLETGVNWSKVEIDGVTGYVSSYFL | -0.00711
